Test results from patent US11634477 (dated 2023).
Numbering of substitutions follows the chain as printed.

B1: C121 (antibody, V domains shown)
VH: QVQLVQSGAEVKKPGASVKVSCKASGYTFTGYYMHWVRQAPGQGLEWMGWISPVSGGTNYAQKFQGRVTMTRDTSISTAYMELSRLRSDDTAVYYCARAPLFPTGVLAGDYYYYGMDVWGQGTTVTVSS
VL: QSALTQPASVSGSPGQSITISCTGTSSDVGSYNLVSWYQQHPGKAPKLMIYEGSKRPSGVSNRFSGSKSGNTASLTISGLQAEDEADYYCCSYAGSSTLVFGGGTKLTVL
B2: C150 (antibody, V domains shown)
VH: EVQLVESGGGLVQPGGSLRLSCVASGFTFSSYWMHWVRQVPGKGPVWVSHINSEGSSTNYADSVRGRFTISRDNAKDTLYLQMNNLRAEDTAVYYCARPTAVAAAGNYFYYYGMDVWGQGTTVTVSS
VL: B1 VL with S31Y, L34F, G53V, K55N, T76I, C91S, A94R, G95S
B3: C154 (antibody, V domains shown)
VH: QVQLVESGGGVVQPGRSLRLSCAASGFTFSRYGMHWVRQAPGKGLEWVAVMSYDGSSKYYADSVKGRFTISRDNSKNTLCLQMNSLRAEDTAVYYCAKQAGPYCSGGSCYSAPFDYWGQGTLVTVSS
VL: DIQMTQSPSSLSASVGDRVTITCQASQGISNYLNWYQQKPGKAPKLLIYDASNLETGVPSRFSGSGSGTDFTFTISSLQPEDIATYYCQQYDNLPITFGQGTRLEIK
B4: C022 (antibody, V domains shown)
VH: QVQLQESGPGLVKPSETLSVTCTVSGGSISSSRYYWGWIRQPPGKGLEWIGSIYYSGSTYYNPSLKSRVTISVDTSKNQFSLKLSSVTAADTAVYYCARHAAAYYDRSGYYFIEYFQHWGQGTLVTVSS
VL: DIQMTQSPSTLSASVGDSVTITCRASQSISSWLAWYQQKPGKAPKLLIYKASSLESGVPSRFSGSGSGTEFTLTISSLQPDDFATYYCQQYNNYRYTFGQGTKLEIK
B5: C216 (antibody, V domains shown)
VH: EVQLVESGGGLVQPGGSLRLSCAASGFTFSSYDMHWVRQATGKGLEWVSAIGTAGDTYYPDSVKGRFTISRENAKNSLYLQMNSLRAGDTAVYYCARDRGSSGWYGWYFDLWGRGTLVTVSS
VL: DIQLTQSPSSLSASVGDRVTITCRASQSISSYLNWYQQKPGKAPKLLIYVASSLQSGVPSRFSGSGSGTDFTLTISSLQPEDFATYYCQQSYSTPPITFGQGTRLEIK
B6: C117 (antibody, V domains shown)
VH: QVQLVESGGGVVQPGRSLRLSCAASGFTFSTYAMHWVRQAPGEGLEWVAVISYDGSNTYYADSVKGRFTISRDNSKNTLYLQMNSLRAEDTAVYYCARDPIWFGELLSPPFVHFDYWGQGTLVTVSS
VL: QSVLTQPPSVSAAPGQKVTISCSGSSSNIGNNLVSWYQQLPGTAPKLLIYENNKRPSGIPDRFSGSKSGTSATLGITGLQTGDEADYYCGAWDSSLSAGGVYVFGTGTKVTVL
B7: C141 (antibody, V domains shown)
VH: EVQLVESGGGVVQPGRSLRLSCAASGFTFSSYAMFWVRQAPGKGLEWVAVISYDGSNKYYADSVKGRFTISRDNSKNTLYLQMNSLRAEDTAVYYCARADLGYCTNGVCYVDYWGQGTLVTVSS
VL: NFMLTQPHSVSESPGKTVTISCTGSSGSIASNYVQWYQQRPGSAPTTVIYEDNQRPSGVPDRFSGSIDSSSNSASLTISGLKTEDEADYYCQSYDSSNWVFGGGTKLTVL
B8: C030 (antibody, V domains shown)
VH: EVQLVESGGGVVQPGRSLRLSCAASGFTFSSYGMHWVRQAPGKGLEWVAVISYDGSNKYYADSVKGRFTISRDNSKNTLYLQMNSLRAEDTAVYYCAKASGIYCSGGNCYSYYFDYWGQGTLVTVSS
VL: not shown
B9: C107 (antibody, V domains shown)
VH: QVQLVQSGAEVKKPGASVRVSCKASGYTFTSYGFSWVRQAPGQGLEWMGWISAYNGNTNFAQKLQGRVTMTTDTSTSTAYMELRSLRSDDTAVYYCARGEAVAGTTGFFDYWGQGTLVTVSS
VL: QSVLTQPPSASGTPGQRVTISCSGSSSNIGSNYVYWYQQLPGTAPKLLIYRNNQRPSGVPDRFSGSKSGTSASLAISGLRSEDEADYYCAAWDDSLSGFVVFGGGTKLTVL
B10: C005 (antibody, V domains shown)
VH: QVQLVQSGPEVKKPGTSVKVSCKASGFTFTSSAVQWVRQARGQRLEWIGWIVVGSGNTNYAQKFQERVTITRDMSTSTAYMELSSLRSEDTAVYYCAAPHCSGGSCLDAFDIWGQGTMVTVSS
VL: not shown
B11: C021 (antibody, V domains shown)
VH: QVQLQESGPGLVKPSQTLSLTCTVSGGSISSGGYYWSWIRQHPGKGLEWIGYIYYSGSTYYNPSLKSRVTISVDTSKNQFSLKLSSVTAADTAVYYCARVWQYYDSSGSFDYWGQGTLVTVSS
VL: not shown
B12: C164 (antibody, V domains shown)
VH: EVQLVESGGGLVQPGGSLRLSCAASGFSVSTKYMTWVRQAPGKGLEWVSVLYSGGSDYYADSVKGRFTISRDNSKNALYLQMNSLRVEDTGVYYCARDSSEVRDHPGHPGRSVGAFDIWGQGTMVTVSS
VL: QSALTQPASVSGSPGQSITISCTGTSNDVGSYTLVSWYQQYPGKAPKLLIFEVTKRSSGISNRFSGSKSGNTASLTISGLQGEDEADYYCCSYAGASTFVFGGGTKLTVL
B13: C116 (antibody, V domains shown)
VH: QVQLVESGGGVVQPGRSLRLSCAASGFTYSTYAMHWVRQAPGKGLEWVAFISYDGSNKYYADSVKGRFTISRDNSKNTLYLQMNSLRAEDTAVYYCARDFYHNWFDPWGQGTLVTVSS
VL: NFMLTQPHSVSESPGKTVTISCTGSSGSIASNYVQWYQQRPGSAPTTVIYEDNQRPSGVPDRFSGSIDRSSNSASLTISGLKTEDEADYYCQSYDSGNHWVVFGGGTRLTVL
B14: C122 (antibody, V domains shown)
VH: EVQLVESGGGLIQPGGSLRLSCAASGLTVSSNYMSWVRQAPGKGLEWVSVLYSGGSSFYADSVKGRFTISRDNSKNTLYLQMNSLRAEDTAVYYCARESGDTTMAFDYWGQGTLVTVSS
VL: DIQLTQSPSFLSASVGDRVTITCRASQGISSYLAWYQQKPGKAPKLLIYAASTLQSGVPSRFSGSGSGTEFTLTISSLQPEDFATYYCQQLNSDSYTFGQGTKLEIK
B15: C123 (antibody, V domains shown)
VH: EVQLVESGGGLIQPGGSLRLSCAASGVTVSRNYMSWVRQAPGKGLEWVSVIYSGGSTYYADSVKGRFTISRDNSKNTLYLQMNSLRAEDTAVYYCARDLSAAFDIWGQGTMVTVSS
VL: B14 VL with D94Y, S95P, Y96P, T97A, K103R
B16: C205 (antibody, V domains shown)
VH: QVQLVQSGAEVKKPGASVKVSCKASGHTFTSYYMHWVRQAPGQGLEWMGIINPSGGSTSYAQKFQGRVTMTRDTSTSTVYMELSSLRSEDTAVYYCARGPERGIVGATDYFDYWGQGTLVTVSS
VL: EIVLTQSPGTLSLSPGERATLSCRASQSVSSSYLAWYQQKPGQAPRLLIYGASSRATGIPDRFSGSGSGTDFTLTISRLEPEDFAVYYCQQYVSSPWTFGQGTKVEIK
B17: C006 (antibody, V domains shown)
VH: QVQLVESGGGLVKPGGSLRLSCAASGFIFSDYCMSWIRRAPGKGLEWLSYISNSGTTRYYADSVKGRFTISRDNGRNSLYLQMDSLSAEDTAVYYCARRGDGSSSIYYYNYMDVWGKGTTVTVSS
VL: not shown
B18: C201 (antibody, V domains shown)
VH: EVQLVESGGGLVQPGRSLRLSCAASGFTFDDYAMHWVRQAPGKGLEWVSGISWNSGSIGYADSVKGRFTISRDNAKNSLYLQMNSLRAEDTALYYCVKGVEYSSSSNFDYWGQGTLVTVSS
VL: IRMTQSPSSVSASVGDRVTITCRASQGISSWLAWYQQKPGKAPKLLIYVESSLQSGVPSRFSGSGSGTDFTLTISSLQPEDFATYYCQQANSFPLTFGGGTKVEIK

Target: SARS-CoV-2 RBD (SARS-CoV-2, UniProt P0DTC2)
Experiment: ELISA

Binder | EC50 [ng/mL]
B1 | 2.85
B2 | 8.11
B3 | 2.92
B4 | 2.4
B5 | 9.53
B6 | 5.38
B7 | 1.71
B8 | 2.89
B9 | 11.6
B10 | 4.41
B11 | 1.25
B12 | 2.06
B13 | 37.6
B14 | 2.67
B15 | 1.92
B16 | > 1000
B17 | 1.81
B18 | 2.98

Target: SARS-CoV RBD (SARS-CoV, UniProt P59594)
Experiment: ELISA

Binder | EC50 [ng/mL]
B1 | > 1000
B2 | > 1000
B3 | 10.7
B4 | 5.99
B5 | > 1000
B6 | > 1000
B7 | > 1000
B8 | > 1000
B9 | > 1000
B10 | > 1000
B11 | > 1000
B12 | > 1000
B13 | > 1000
B14 | > 1000
B15 | > 1000
B16 | > 1000
B17 | > 1000
B18 | > 1000
